Results: patent publication US20040146964

T1: synthetic polypeptide of HIF-1α residues 556-574, unmodified
T1 chain: DLDLEMLAPYIPMDDDFQL

T2: C. elegans HIF-α homologue, wild type
T2 chain: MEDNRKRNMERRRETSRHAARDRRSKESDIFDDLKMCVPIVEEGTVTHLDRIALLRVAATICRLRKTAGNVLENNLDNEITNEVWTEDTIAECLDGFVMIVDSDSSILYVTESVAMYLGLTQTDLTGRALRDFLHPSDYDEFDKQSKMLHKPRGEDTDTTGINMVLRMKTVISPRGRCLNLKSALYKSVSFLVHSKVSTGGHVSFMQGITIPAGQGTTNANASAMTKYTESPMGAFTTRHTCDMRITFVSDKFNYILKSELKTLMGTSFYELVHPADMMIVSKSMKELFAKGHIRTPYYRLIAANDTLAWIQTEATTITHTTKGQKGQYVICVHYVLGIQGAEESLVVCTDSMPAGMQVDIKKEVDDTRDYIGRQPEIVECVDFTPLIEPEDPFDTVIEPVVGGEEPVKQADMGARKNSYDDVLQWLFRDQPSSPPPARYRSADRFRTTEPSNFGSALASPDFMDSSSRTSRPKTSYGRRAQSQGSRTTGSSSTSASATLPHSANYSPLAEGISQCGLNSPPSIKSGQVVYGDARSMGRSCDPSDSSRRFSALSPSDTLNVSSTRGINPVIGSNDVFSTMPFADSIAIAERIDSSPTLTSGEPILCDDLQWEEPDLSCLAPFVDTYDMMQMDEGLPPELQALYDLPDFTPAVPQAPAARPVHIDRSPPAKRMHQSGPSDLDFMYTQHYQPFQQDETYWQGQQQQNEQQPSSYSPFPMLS


Columns and labels:
[1] = target: T1, synthetic polypeptide of HIF-1α …
[2] = target: T2, C. elegans HIF-α homologue, wild type
[3] = target: full length HIF-1α double mutant P402A+P564G
Sequence of full length HIF-1α double mutant P402A+P564G (chain, as listed by the source P402A P564G): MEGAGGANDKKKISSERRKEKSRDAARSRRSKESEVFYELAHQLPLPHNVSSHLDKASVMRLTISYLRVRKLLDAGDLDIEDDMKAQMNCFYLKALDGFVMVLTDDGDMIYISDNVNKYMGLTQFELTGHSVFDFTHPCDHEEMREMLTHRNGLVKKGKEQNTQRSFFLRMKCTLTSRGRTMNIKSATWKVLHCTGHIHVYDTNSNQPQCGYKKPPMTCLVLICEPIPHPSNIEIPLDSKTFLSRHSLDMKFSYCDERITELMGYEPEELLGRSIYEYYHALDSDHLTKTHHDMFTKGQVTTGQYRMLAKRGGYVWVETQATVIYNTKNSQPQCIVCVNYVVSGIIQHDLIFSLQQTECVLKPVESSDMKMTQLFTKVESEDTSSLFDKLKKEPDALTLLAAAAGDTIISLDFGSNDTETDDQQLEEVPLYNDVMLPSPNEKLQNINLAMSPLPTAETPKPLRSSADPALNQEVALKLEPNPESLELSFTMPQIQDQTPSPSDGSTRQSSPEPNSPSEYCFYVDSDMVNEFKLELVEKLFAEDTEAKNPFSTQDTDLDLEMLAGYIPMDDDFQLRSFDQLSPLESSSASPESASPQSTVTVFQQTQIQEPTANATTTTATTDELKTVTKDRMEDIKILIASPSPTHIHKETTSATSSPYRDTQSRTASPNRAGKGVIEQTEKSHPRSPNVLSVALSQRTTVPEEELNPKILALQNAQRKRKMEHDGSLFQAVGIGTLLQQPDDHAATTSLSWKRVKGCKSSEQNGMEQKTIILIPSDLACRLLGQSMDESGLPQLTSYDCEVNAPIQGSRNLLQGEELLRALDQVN

[4] = target: human HIF-1α, full length wild type

Sequence of full length HIF-1α P402A (chain, as listed by the source P402A): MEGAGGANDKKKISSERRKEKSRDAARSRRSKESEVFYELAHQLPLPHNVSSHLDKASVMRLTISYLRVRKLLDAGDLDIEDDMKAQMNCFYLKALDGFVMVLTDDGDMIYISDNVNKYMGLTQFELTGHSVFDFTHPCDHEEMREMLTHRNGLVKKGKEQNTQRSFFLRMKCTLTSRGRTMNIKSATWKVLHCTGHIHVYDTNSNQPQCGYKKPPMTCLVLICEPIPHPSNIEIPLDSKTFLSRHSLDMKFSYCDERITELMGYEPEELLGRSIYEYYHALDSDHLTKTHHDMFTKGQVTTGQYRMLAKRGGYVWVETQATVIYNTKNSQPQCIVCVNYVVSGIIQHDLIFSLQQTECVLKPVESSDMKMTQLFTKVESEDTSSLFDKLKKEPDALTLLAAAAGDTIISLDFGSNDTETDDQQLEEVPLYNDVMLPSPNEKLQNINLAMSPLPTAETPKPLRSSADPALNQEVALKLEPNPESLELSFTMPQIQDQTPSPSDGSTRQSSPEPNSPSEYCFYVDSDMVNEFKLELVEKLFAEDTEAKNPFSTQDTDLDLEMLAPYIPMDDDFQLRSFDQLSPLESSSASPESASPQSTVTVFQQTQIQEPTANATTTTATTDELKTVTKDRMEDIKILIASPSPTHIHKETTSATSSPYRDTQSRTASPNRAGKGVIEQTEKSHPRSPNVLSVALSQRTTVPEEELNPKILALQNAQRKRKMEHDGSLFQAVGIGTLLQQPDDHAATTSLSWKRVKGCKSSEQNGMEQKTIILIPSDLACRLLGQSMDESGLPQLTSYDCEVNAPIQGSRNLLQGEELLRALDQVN
Sequence of full length HIF-1α P564G (chain, as listed by the source P564G): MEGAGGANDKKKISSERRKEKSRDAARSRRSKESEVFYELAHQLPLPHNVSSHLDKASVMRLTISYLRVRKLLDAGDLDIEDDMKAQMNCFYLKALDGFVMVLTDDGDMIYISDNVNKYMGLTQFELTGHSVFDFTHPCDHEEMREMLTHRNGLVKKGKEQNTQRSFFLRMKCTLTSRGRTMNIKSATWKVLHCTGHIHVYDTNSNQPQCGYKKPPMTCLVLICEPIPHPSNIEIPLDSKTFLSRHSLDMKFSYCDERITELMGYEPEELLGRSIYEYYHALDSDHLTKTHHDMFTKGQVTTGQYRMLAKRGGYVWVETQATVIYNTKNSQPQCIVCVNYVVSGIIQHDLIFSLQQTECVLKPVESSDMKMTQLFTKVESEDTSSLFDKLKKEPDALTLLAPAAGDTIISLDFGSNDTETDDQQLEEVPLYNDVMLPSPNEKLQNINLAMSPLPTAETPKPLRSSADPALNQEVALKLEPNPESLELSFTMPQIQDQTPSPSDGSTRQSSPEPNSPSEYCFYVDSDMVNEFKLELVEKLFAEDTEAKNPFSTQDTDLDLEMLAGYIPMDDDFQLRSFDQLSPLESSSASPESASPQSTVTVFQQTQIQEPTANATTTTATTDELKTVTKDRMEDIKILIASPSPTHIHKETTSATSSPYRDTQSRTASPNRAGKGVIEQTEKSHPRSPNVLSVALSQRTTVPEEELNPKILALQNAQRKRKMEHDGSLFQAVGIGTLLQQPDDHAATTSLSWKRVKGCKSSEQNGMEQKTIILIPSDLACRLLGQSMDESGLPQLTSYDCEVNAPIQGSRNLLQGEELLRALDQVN

Protein	promotion of VHL E3 capture (negative) [3]	promotion of the HIFα/VHL E3 interaction (anti-HA IP with 786-0/VHL extract) [4]	promotion of VHL E3 capture via the C-terminal (P564) site (full length HIF-1α P402A)	further results
recombinant human type I prolyl 4-hydroxylase (protein) chain 1: HPGFFTSIGQMTDLIHTEKDLVTSLKDYIKAEEDKLEQIKKWAEKLDRLTSTATKDPEGFVGHPVNAFKLMKRLNTEWSELENLVLKDMSDGFISNLTIQRQYFPNDEDQVGAAKALLRLQDTYNLDTDTISKGNLPGVKHKSFLTAEDCFELGKVAYTEADYYHTELWMEQALRQLDEGEISTIDKVSVLDYLSYAVYQQGDLDKALLLTKKLLELDPEHQRANGNLKYFEYIMAKEKDVNKSASDDQSDQKTTPKKKGVAVDYLPERQKYEMLCRGEGIKMTPRRQKKLFCRYHDGNRNPKFILAPAKQEDEWDKPRIIRFHDIISDAEIEIVKDLAKPRLRRATISNPITGDLETVHYRISKSAWLSGYENPVVSRINMRIQDLTGLDVSTAEELQVANYGVGGQYEPHFDFARKDEPDAFKELGTGNRIATWLFYMSDVSAGGATVFPEVGASVWPKKGTAVFWYNLFASGEGDYSTRHAACPVLVGNKWVSNKWLHERGQEFRRPCTLSELE chain 2: not shown	–	–	–	prolyl 4-hydroxylase activity (hydroxylation-coupled decarboxylation of 2-oxoglutarate) [1]: the HIF polypeptide showed no activity
recombinant human type II prolyl 4-hydroxylase (protein) chain 1: EFFTSIGHMTDLIYAEKELVQSLKEYILVEEAKLSKIKSWANKMEALTSKSAADAEGYLAHPVNAYKLVKRLNTDWPALEDLVLQDSAAGFIANLSVQRQFFPTDEDEIGAAKALMRLQDTYRLDPGTISRGELPGTKYQAMLSVDDCFGMGRSAYNEGDYYHTVLWMEQVLKQLDAGEEATTTKSQVLDYLSYAVFQLGDLHRALELTRRLLSLDPSHERAGGNLRYFEQLLEEEREKTLTNQTEAELATPEGIYERPVDYLPERDVYESLCRGEGVKLTPRRQKRLFCRYHHGNRAPQLLIAPFKEEDEWDSPHIVRYYDVMSDEEIERIKEIAKPKLARATVRDPKTGVLTVASYRVSKSSWLEEDDDPVVARVNRRMQHITGLTVKTAELLQVANYGVGGQYEPHFDFSRNDERDTFKHLGTGNRVATFLNYMSDVEAGGATVFPDLGAAIWPKKGTAVFWYNLLRSGEGDYRTRHAACPVLVGCKWVSNKWFHERGQEFLRPCGSTEVD chain 2: not shown	–	–	–	prolyl 4-hydroxylase activity (hydroxylation-coupled decarboxylation of 2-oxoglutarate) [1]: the HIF polypeptide showed no activity
recombinant C. elegans PHY-1 (protein) DLFTSIADMQNLLETERNIPKILDKYIHDEEERLVQLKKLSEEYSKKNEISIENGLKDITNPINAFLLIKRKIFDWKEIESKMNANKAGNVVSSITDDSYGVRYPTADDLSGAAIGLLRLQDTYRLDTKDLADGKIYADQGNYTFSAKDCFEIARAAYNEHDFYHTVMWMEEAQRRLGDEVEPTVEVEDILEYLAFALYKQNNLKHALKLTEELYKMNPTHPRAKGNVKWYEDLLEQEGVRRSDMRKNLPPIQNRRPDSVLGNTERTMYEALCRNEVPVSQKDISRLYCYYKRDRPFLVYAPIKVEIKRFNPLAVLFKDVISDDEVAAIQELAKPKLARATVHDSVTGKLVTATYRISKSAWLKEWEGDVVETVNKRIGYMTNLEMETAEELQIANYGIGGHYDPHFDHAKKEESKSFESLGTGNRIATVLFYMSQPSHGGGTVFTEAKSTILPTKNDALFWYNLYKQGDGNPDTRHAACPVLVGIKWVSNKWIHEKGNEFRRPCGLKSSDYERFVGDLGYGPEPRNAPNVSPNLAKDVWETL	–	–	–	modification of HIF-1 read by HA.VHL-1 capture [2]: had no activity in these assays
recombinant C. elegans PHY-2 (protein) DLFTAIADLQHMLGAEKDVTTIIDQYIEAERARLDDLRRYAHEYVHRNAHAESVGPEFVTNPINAYLLIKRLTTEWKKVENIMLNNKASTFLKNITDNRVRSEVKFPGEEDLSGAATALLRLQDTYSLDTLDLSNGIIGGEKVSNKLSGHDTFEVGRSAYNQKDYYHCLMWMQVALVKIENENPPTIEEWEILEYLAYSLYQQGNVRRALSLTKRLAKIAPNHPRAKGNVKWYEDMLQGKDMVGDLPPIVNKRVEYDGIVERDAYEALCRGEIPPVEPKWKNKLRCYLKRDKPFLKLAPIKVEILRFDPLAVLFKNVIHDSEIEVIKELASPKLKRATVQNSKTGELEHATYRISKSAWLKGDLDPVIDRVNRRIEDFTNLNQATSEELQVANYGLGGHYDPHFDFARKEEKNAFKTLNTGNRIATVLFYMSQPERGGATVFNHLGTAVFPSKNDALFWYNLRRDGEGDLRTRHAACPVLLGVKWVSNKWIHEKGQEFTRPCGLEEEVQENFIGDLSPYANDP	–	–	–	modification of HIF-1 read by HA.VHL-1 capture [2]: had no activity in these assays
rat SM-20, full length (protein) MPLGHIMRLDLEKIALEYIVPCLHEVGFCYLDNFLGEVVGDCVLERVKQLHYNGALRDGQLAGPRAGVSKRHLRGDQITWIGGNEEGCEAINFLLSLIDRLVLYCGSRLGKYYVKERSKAMVACYPGNGTGYVRHVDNPNGDGRCITCIYYLNKNWDAKLHGGVLRIFPEGKSFVADVEPIFDRLLFSWSDRRNPHEVQPSYATRYAMTVWYFDAEERAEAKKKFRNLTRKTESALAKD	No activity at all was observed with a double HIF-1α mutant, P402A P564G, that ablates both hydroxylation sites	With full length wild-type HIF-1α, striking activity was observed with rat SM-20 and all three human gene products	interaction through the C-terminal site could be promoted by all enzymes	–
human PHD2 (protein) MANDSGGPGGPSPSERDRQYCELCGKMENLLRCSRCRSSFYCCKEHQRQDWKKHKLVCQGSEGALGHGVGPHQHSGPAPPAAVPPPRAGAREPRKAAARRDNASGDAAKGKVKAKPPADPAAAASPCRAAAGGQGSAVAAEAEPGKEEPPARSSLFQEKANLYPPSNTPGDALSPGGGLRPNGQTKPLPALKLALEYIVPCMNKHGICVVDDFLGKETGQQIGDEVRALHDTGKFTDGQLVSQKSDSSKDIRGDKITWIEGKEPGCETIGLLMSSMDDLIRHCNGKLGSYKINGRTKAMVACYPGNGTGYVRHVDNPNGDGRCVTCIYYLNKDWDAKVSGGILRIFPEGKAQFADIEPKFDRLLFFWSDRRNPHEVQPAYATRYAITVWYFDADERARAKVKYLTGEKGVRVELNKPSDSVGKDVF	No activity at all was observed with a double HIF-1α mutant, P402A P564G, that ablates both hydroxylation sites	With full length wild-type HIF-1α, striking activity was observed with rat SM-20 and all three human gene products	interaction through the C-terminal site could be promoted by all enzymes	promotion of VHL E3 capture via the N-terminal (P402) site (full length HIF-1α P564G): VHL E3 capture was less efficient when only the N-terminal site (P402) was intact, and was only promoted by EGLN2 (PHD1) and EGLN1(PHD2)
human PHD3 (protein) MPLGHIMRLDLEKIALEYIVPCLHEVGFCYLDNFLGEVVGDCVLERVKQLHCTGALRDGQLAGPRAGVSKRHLRGDQITWIGGNEEGCEAISFLLSLIDRLVLYCGSRLGKYYVKERSKAMVACYPGNGTGYVRHVDNPNGDGRCITCIYYLNKNWDAKLHGGILRIFPEGKSFIADVEPIFDRLLFFWSDRRNPHEVQPSYATRYAMTVWYFDAEERAEAKKKFRNLTRKTESALTED	No activity at all was observed with a double HIF-1α mutant, P402A P564G, that ablates both hydroxylation sites	With full length wild-type HIF-1α, striking activity was observed with rat SM-20 and all three human gene products	interaction through the C-terminal site could be promoted by all enzymes	–
